# According to patent US12134635 (SONNET BIOTHERAPEUTICS, dated 2024):
# T1: IL-18 receptor (UniProt Q13478 19-541; O95256 20-599, limits assumed)
# T1 sequence (looked up) 1: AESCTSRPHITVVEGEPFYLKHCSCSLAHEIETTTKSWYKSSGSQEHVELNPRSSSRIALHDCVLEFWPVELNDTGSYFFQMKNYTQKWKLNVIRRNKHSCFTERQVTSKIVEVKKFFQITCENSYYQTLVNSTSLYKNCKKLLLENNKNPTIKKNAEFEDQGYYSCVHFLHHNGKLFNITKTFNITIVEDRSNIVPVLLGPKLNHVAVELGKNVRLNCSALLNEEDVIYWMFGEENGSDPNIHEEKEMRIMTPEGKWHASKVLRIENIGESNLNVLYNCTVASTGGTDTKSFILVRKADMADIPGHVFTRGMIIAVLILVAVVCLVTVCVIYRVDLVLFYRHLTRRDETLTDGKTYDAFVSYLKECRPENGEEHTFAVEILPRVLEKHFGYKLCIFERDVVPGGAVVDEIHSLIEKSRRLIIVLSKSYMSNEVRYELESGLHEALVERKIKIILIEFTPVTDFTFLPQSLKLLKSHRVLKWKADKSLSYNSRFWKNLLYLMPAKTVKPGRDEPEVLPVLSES
# T1 sequence (looked up) 2: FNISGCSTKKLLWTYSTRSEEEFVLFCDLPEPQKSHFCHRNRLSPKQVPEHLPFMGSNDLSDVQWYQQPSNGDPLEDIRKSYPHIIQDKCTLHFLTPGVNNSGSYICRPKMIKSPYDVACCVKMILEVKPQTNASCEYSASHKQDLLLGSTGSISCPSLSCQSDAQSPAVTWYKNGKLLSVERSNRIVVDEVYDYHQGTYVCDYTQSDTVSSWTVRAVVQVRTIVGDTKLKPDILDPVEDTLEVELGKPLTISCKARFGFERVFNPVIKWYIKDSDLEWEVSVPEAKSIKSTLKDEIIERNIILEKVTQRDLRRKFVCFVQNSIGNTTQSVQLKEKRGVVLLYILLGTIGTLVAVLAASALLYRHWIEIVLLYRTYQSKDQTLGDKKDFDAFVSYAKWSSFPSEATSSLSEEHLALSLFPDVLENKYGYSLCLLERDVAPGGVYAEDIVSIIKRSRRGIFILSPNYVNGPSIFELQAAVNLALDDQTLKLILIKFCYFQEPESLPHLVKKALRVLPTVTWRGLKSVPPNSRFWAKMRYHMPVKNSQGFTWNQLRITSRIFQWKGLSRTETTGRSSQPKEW
# B1: hIL-18 Variant A (ligand)
# chain: WFGKLESKLSVIRNLNDQVLFIDQGNRPLFEDMTDSDSRDNAPRTIFIISYYKDSQPRGWAVTISVKSEKISTLSSENKIISFKEMNPPDNIKDTKSDIIFFQRSVPGHYNKMQFESSSYEGYFLASEKERDLFKLILKKEDELGDRSIMFTVQNED
# Legend:
# IL-18 binding protein = IL-18 binding protein (UniProt O95998); assay: Biacore T200 SPR, CM5 chip, IL-18BP as immobilized ligand, hIL-18 titrated, 25 C
# IL-18 receptor = biological target: T1, IL-18 receptor; assay: cell-based or functional assay
molecule,measurement,setting,value
Recombinant hIL-18 (NIBSC wildtype) (from UniProt Q14116 37-193) (ligand),Kd,IL-18 binding protein,0.056 nM
B1,"EC50 (read off the curve), HEK-Blue IL-18 reporter, OD at 640 nM",IL-18 receptor,~0.03 ng/mL
